Assay results: patent publication US10059928B2, “Polymerases” (Illumina Cambridge Limited, priority 2005, dated 2018)
Blank lines part the entries; values can stand above or below the molecule they belong to.

Tests used:
DNA = conditions: wild-type enzyme; Southworth et al. 1996; read-out: Kd (affinity for DNA); cited from earlier work
[1] = tested on: surface-coupled A-template hairpin (oligo 815); assay: NUNC tube assay using crude protein preparation: incorporation of ffTTP into surface-coupled hairpin; assay type: biochemical; conditions: crude enzyme, 5 μM ffT-N3-647, 45° C., 30 minutes; samples not normalised for concentration
Procedure: Small 5 ml cultures of the mutant enzymes (along with a culture of YAV C223S exo- for direct comparison) were taken through a quick purification as outlined in WO 2005/024010 up until the heat treatment step. At this point, the samples were considered to be sufficiently pure to test their activity.
The buffers for each of the crude preparations were exchanged into enzymology buffer (50 mM Tris pH 8.0, 6 mM MgSO4, 1 mM EDPA, 0.05% Tween20) using an S300 gel filtration spin-column. The samples were not normalised for concentration. The test employed was a simple incorporation of ffTTP into surface-coupled A-template hairpin. 2 pmoles of 5′-amino oligo 815 (5′-[…] […]-3′) (SEQ ID NO: 17) was coupled to a NUNC-nucleolink strip according to the manufacturers protocol.
Once washed, each well was incubated with a 20 µl aliquot of a crude enzyme preparation (identity of enzyme listed below) and 5 µM ffT-N3-647. The strip was then incubated at 45° C. for 30 minutes. The experiment was performed in duplicate. Upon completion of the 30 minute incubation, wells were washed with 3×100 µl of high salt wash buffer (10 mM Tris pH 8.0, 1M NaCl, 10 mM EDTA) and then 3×100 µl of MilliQ water. Strips were scanned on a typhoon fluorescence imager CY5 filter, PMT=450 V).
The fluorescence density is proportional to the amount of ffTTP incorporation—the darker the well, the greater the level of incorporation. […]

[2] = tested on: ffT-N3-cy3 incorporation into A template hairpin oligo 815; assay: Incorporation kinetics of ffT-N3-cy3 (NUNC tube assay, Michaelis plots); assay type: biochemical; conditions: 45° C., [DNA]<<[pol] or [ffNTP]
Procedure: The kinetic characterization of the enzymes was conducted using NUNC tube assay and involved the measurement of rate constants for the first order incorporation of ffT N3 cy3 where [DNA]<<[pol] or [ffNTP], at a variety of [ffTTP]. Below is described the methodology used for each of the three polymerases tested.
Six (1×8) NUNC nucleolink strips were functionalized with 2 pmoles of 5′-amino A template hairpin oligo 815 (5′ H2N-[…] ATGCACATCAGCG-3′) (SEQ ID NO: 18), according to the manufacturer's protocol.
Each strip was employed for a time-course experiment at a particular (ffT-N3-cy3). […]
Time-courses were initiated by addition of a 20 μl aliquot of 2× enzymology mix (X μM ffT-N3-cy3, 1.1 μM polymerase in enzymology buffer) pre-equilibrated at 45° C. for 2 minutes using an 8-channel multipipette in order to start reactions in individual wells at identical time-points. […] After reactions in all 8 wells stopped, strips were washed with […] high salt wash (10 mM Tris pH 8.0, 1 M NaCl, 10 mM EDTA) and then […] MilliQ water and then scanned on a Typhoon fluorescence imager (Cy3 filter, PMT=500 V). Fluorescence intensities in each well were quantified using Imagequant. Plotting the variation in Cy3 fluorescence intensity vs. time generates time-course graphs. […]

10A hairpin DNA [3] = assay: Single base incorporation assay, crude enzyme preparations (normalised concentrations); assay type: biochemical; conditions: first base incorporation of ffTTP
Procedure: The activity of the crude enzyme preparations (normalised concentrations) was measured using the single base incorporation assay as described in WO 2005/024010. 10 minute incubations were run with either 30 or 3 μg/ml crude enzyme preparation in the presence of 2 μM ffT-N3-cy3 and 20 nM 10A hairpin DNA (^32P-labelled), aliquots of the reaction mixture were withdrawn at 0, 30, 60, 180 and 600 s and run on a 12% acrylamide gel.
The band intensities were quantified using Imagequant and the fluorescence intensity plotted versus incubation time to generate the time-courses shown in FIG. 4.

10A hairpin DNA [4] = assay: Single base incorporation assay for purified polymerases where [DNA] is greater than [pol]; assay type: biochemical; conditions: 4 nM purified enzyme, 2 μM ffT-N3-cy3
Procedure: The activity of the purified enzyme preparations of Clone 9 polymerase (YAV C223S exo-) and the thumb sub-domain mutants K705A, R713A and R743A was measured using the single base incorporation assay as described in WO 2005/024010. The experiment was carried out such that the respective concentrations of DNA and polymerase were at a ratio of approximately 5:1. Thus, the ability of the enzyme to incorporate nucleotides into multiple DNA template molecules in a single reaction cycle was investigated. 30 minute incubations were run with 4 nM purified enzyme in the presence of 20 nM 10A hairpin DNA (^32P-labelled) and 2 μM ffT-N3-cy3, aliquots of the reaction mixture were withdrawn at 0, 15, 30, 60, 180, 480, 900 and 1800 s intervals and run on a 12% acrylamide gel.
The band intensities were quantified using Imagequant and the fluorescence intensity, converted into percentage completion (based on the relative intensities of the starting material and final product bands on the gel) plotted versus incubation time to generate the timecourses shown in FIG. 5.

B1: wild-type 9°N-7 polymerase: Wild-type family B DNA polymerase from Thermococcus sp. 9°N-7 (protein, UniProt Q56366 1-775, looked up)
DNA polymerase: MILDTDYITENGKPVIRVFKKENGEFKIEYDRTFEPYFYALLKDDSAIEDVKKVTAKRHGTVVKVKRAEKVQKKFLGRPIEVWKLYFNHPQDVPAIRDRIRAHPAVVDIYEYDIPFAKRYLIDKGLIPMEGDEELTMLAFDIETLYHEGEEFGTGPILMISYADGSEARVITWKKIDLPYVDVVSTEKEMIKRFLRVVREKDPDVLITYNGDNFDFAYLKKRCEELGIKFTLGRDGSEPKIQRMGDRFAVEVKGRIHFDLYPVIRRTINLPTYTLEAVYEAVFGKPKEKVYAEEIAQAWESGEGLERVARYSMEDAKVTYELGREFFPMEAQLSRLIGQSLWDVSRSSTGNLVEWFLLRKAYKRNELAPNKPDERELARRRGGYAGGYVKEPERGLWDNIVYLDFRSLYPSIIITHNVSPDTLNREGCKEYDVAPEVGHKFCKDFPGFIPSLLGDLLEERQKIKRKMKATVDPLEKKLLDYRQRAIKILANSFYGYYGYAKARWYCKECAESVTAWGREYIEMVIRELEEKFGFKVLYADTDGLHATIPGADAETVKKKAKEFLKYINPKLPGLLELEYEGFYVRGFFVTKKKYAVIDEEGKITTRGLEIVRRDWSEIAKETQARVLEAILKHGDVEEAVRIVKEVTEKLSKYEVPPEKLVIHEQITRDLRDYKATGPHVAVAKRLAARGVKIRPGTVISYIVLKGSGRIGDRAIPADEFDPTKHRYDAEYYIENQVLPAVERILKAFGYRKEDLRYQKTKQVGLGAWLKVKGKK
- Kd (DNA): 0.05 nM

- activity relative to YAV (in words) (10A hairpin DNA [3]): comparable activities to YAV
B2: R743A: 9°N-7 YAV C223S exo- polymerase with alanine substitution at Arg743 in the thumb subdomain (protein)
chain: MILDTDYITENGKPVIRVFKKENGEFKIEYDRTFEPYFYALLKDDSAIEDVKKVTAKRHGTVVKVKRAEKVQKKFLGRPIEVWKLYFNHPQDVPAIRDRIRAHPAVVDIYEYDIPFAKRYLIDKGLIPMEGDEELTMLAFSISTLYHEGEEFGTGPILMISYADGSEARVITWKKIDLPYVDVVSTEKEMIKRFLRVVREKDPDVLITYNGDNFDFAYLKKRSEELGIKFTLGRDGSEPKIQRMGDRFAVEVKGRIHFDLYPVIRRTINLPTYTLEAVYEAVFGKPKEKVYAEEIAQAWESGEGLERVARYSMEDAKVTYELGREFFPMEAQLSRLIGQSLWDVSRSSTGNLVEWFLLRKAYKRNELAPNKPDERELARRRGGYAGGYVKEPERGLWDNIVYLDFRSYAVSIIITHNVSPDTLNREGCKEYDVAPEVGHKFCKDFPGFIPSLLGDLLEERQKIKRKMKATVDPLEKKLLDYRQRLIKILANSFYGYYGYAKARWYCKECAESVTAWGREYIEMVIRELEEKFGFKVLYADTDGLHATIPGADAETVKKKAKEFLKYINPKLPGLLELEYEGFYVRGFFVTKKKYAVIDEEGKITTRGLEIVRRDWSEIAKETQARVLEAILKHGDVEEAVRIVKEVTEKLSKYEVPPEKLVIHEQITRDLRDYKATGPHVAVAKRLAARGVKIRPGTVISYIVLKGSGRIGDRAIPADEFDPTKHRYDAEYYIENQVLPAVEAILKAFGYRKEDLRYQKTKQVGLGAWLKVKGKK
modifications: Codon optimised thumb mutant polymerase
notes: 9°N-7 YAV C223S exo- polymerase with alanine substitution at Arg743 in the thumb subdomain
- improvement in level of incorporation over clone 9 [1]: ~45%
- kpol [2]: 0.068 s⁻¹
- amplitude of the burst (exponential) phase, percentage completion (10A hairpin DNA [4]; 20 nM 10A hairpin DNA (ratio 5:1)): ~90%
- observed rate constant kobs for the burst phase (10A hairpin DNA [4]; crude fitting of timecourses, 20 nM 10A hairpin DNA): ~0.004 s⁻¹
